This is an account of results in patent US6866851.

What all share (assay): cell-based or functional assay
The target of experiment [1] is GFRα1-RET receptor complex (cells transfected with GFRα1 and expressing RET).
Experiment [2] concerns the target GFRα2-RET receptor complex (cells transfected with GFRα2 and expressing RET).
The target of experiment [3] is GFRα3-RET receptor complex (cells transfected with GFRα3 and expressing RET).

Bounds are passed on as bounds.

On to “GPG-F2c (GDNF homologue-scanning mutant, region F2c replaced by persephin sequence) (ligand)”, for which the GFRα1-RET reporter activation relative to GDNF (% of full-length GDNF) in experiment [1] was less than 60.

Take “GPG-Ha (GDNF homologue-scanning mutant, region Ha replaced by persephin sequence) (ligand)”: in experiment [1], the GFRα1-RET reporter activation (FIG. 4, percentage of reporter activation by GDNF) was determined as 80%. The same substance registered a GFRα2-RET reporter activation (FIG. 4, percentage of reporter activation by GDNF) in experiment [2] of 27%.

For “PAP-Ha/F2ac (persephin with regions Ha, F2a and F2c from artemin) (ligand)”, the GFRα3-RET reporter activation relative to artemin (% of full length artemin) in experiment [3] fell in the range of 70 to 80.

In the case of “PNP-F2ac (His-Flag-PNP-F2ac, from mouse sequences) (ligand)”, in experiment [2], the GFRα2-RET reporter activation relative to GDNF was < 30 % of GDNF.

On to “PNP-Ha/F2ac (persephin with regions Ha, F2a and F2c from neurturin) (ligand)”, for which the GFRα2-RET reporter activation relative to GDNF in experiment [2] is 70 to 80 % of GDNF.
